Experimental findings from patent US20260201058A1 are described below.

Assay [1] concerns the target monkey PD-L1 (Cyno-PD-L1) on cells (monkey (cyno)). The experiment in a line: flow cytometry on 293F-cyno PD-L1 cells.
Assay [2] deals with human PD-L1 on GS-C2 cells (cells overexpressing human PD-L1, GenScript, M00613) (human) (UniProt Q9NZQ7). The experiment in a line: flow cytometry on GS-C2 cells. A general note: Flow cytometry measures light scatter and fluorescence of single cells or particles in a stream.
human PD-L1 on GS-C2 cells (cells overexpressing human PD-L1, GenScript, M00613) (human), sequence (Q9NZQ7 19-290): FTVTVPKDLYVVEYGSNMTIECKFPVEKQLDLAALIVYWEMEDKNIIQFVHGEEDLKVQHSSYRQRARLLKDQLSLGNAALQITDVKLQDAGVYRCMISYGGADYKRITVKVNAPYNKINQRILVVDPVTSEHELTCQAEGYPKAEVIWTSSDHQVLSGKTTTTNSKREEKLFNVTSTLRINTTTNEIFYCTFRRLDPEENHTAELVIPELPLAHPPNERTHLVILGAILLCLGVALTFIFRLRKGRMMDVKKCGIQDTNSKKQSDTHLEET
Assay [3] shares this target. Nature of the assay: cell-based or functional assay.

Regarding “control antibody Benchmark-ATE (monoclonal antibody, Atezolizumab)”, the EC50 was 1.34 nM in assay [1] and 0.694 nM in assay [2]. The EC50 (nM), blocking of T cell PD-1/PD-L1 signaling pathway (GS-C2 cells with Jurket-NFAT-PD1 cells, luciferase) in assay [3] was determined as 2.38 nM.

By EC50 is commonly meant the concentration at which the effect is half-maximal.
